# Laboratory results taken from the RNAGym collection of RNA variant scans (doi:10.1021/acssynbio.7b00057).
# B1: Pistol ribozyme (parent)
# chain: GGGUCGUUGUUCCAUAAUCGCGUGGAUAUGGCACGCAAGUUUCUACCGGGCACCGUAAAUGUCCGACUGGAGCCGUUCGGGCGGCUAUAAACAGACCUCAGGCCCGAAGCGUGGCGGCACCUGCCGCCGGUGGUAAAAAAGAUCGGAAGAGCACACGUCU
# Variants of: B1
# Assay: aptazyme ON/OFF ratio, guanine; higher = stronger switching; co-transcriptional cleavage with and without guanine
row,Variant,aptazyme ON/OFF ratio
1,U7A G9C C12G C13G,1.05
2,U7A G9C C12G C13U,1.05
3,U7A G9C C12G C13A,1.05
4,U7A G9A U10A U11G C12U C13A,1.17
5,U7A G9A U10A U11G C12U C13G,1.15
6,U7A G9A U10A U11G C12U C13U,1.42
7,U7A G9A U10G C12U C13G,1.14
8,U7A G9A U10G C12U C13A,1.06
9,U7A G9A U10G C12U C13U,1.32
10,U7A,3.28
11,U7A G9C U10A U11A C12U,1.07
12,U7A G9C U10A U11A C12A,1.06
13,U7A G9C U10A U11A C12G,1.06
14,U7A G9C U10A C13G,1.08
15,U7A G9C U10A C13A,1.16
16,U7A G9C U10A C13U,1.18
17,U7A G9A U10G U11G C12U C13G,1.33
18,U7A G9A U10G U11G C12U C13A,1.17
19,U7A G9A U10G U11G C12U C13U,1.26
20,U7A G9A U10A U11G C12A C13A,1.16
21,U7A G9A U10A U11G C12A C13U,1.09

row,Variant,aptazyme ON/OFF ratio
1,U7A G9A U10A U11G C12A C13G,1.22
2,U7A G9C U10A U11A C12U C13U,1.1
3,U7A G9C U10A U11A C12U C13A,1.13
4,U7A G9C U10A U11A C12U C13G,1.1
5,U7A G9A U10G U11G C12G,1.38
6,U7A G9A U10G U11G C12U,1.47
7,U7A G9A U10G U11G C12A,1.06
8,U7A G9A U10A,1.52
9,U7A G9A U10G,1.53
10,U7A G9A U10C,1.96
11,U7A G9A U10G U11A C12U C13A,1.09
12,U7A G9A U10G U11A C12U C13U,1.17
13,U7A G9A U10G U11A C12U C13G,1.06
14,U7A G9A U11C C13G,1.08
15,U7A G9A U11C C13A,1.07
16,U7A G9A U11C C13U,1.03
17,U7A G9C U10A U11C C12A C13A,1.06
18,U7A G9C U10A U11C C12A C13G,1.1
19,U7A G9C U10A U11C C12A C13U,1.09
20,U7A G9C C12A C13A,1.07
21,U7A G9C C12A C13G,1.04

row,Variant,aptazyme ON/OFF ratio
1,U7A G9C C12A C13U,1.1
2,U7A G9A U10C U11G C12U C13A,1.15
3,U7A G9A U10C U11G C12U C13G,1.21
4,U7A G9A U10C U11G C12U C13U,1.3
5,U7A G9A C12G,2.38
6,U7A G9A C12A,2.25
7,U7A G9A C12U,2.04
8,U7A G9A U10C U11G C12G C13U,1.14
9,U7A G9A U10C U11G C12G C13G,1.27
10,U7A G9A U10C U11G C12G C13A,1.17
11,U7A G9A U10A U11G C12U,1.17
12,U7A G9A U10A U11G C12A,1.1
13,U7A G9A U10A U11G C12G,1.13
14,U7A G9C U10A U11A C12A C13A,1.13
15,U7A G9C U10A U11A C12A C13U,1.09
16,U7A G9C U10A U11A C12A C13G,1.07
17,U7A G9A U11A C12A C13G,1.16
18,U7A G9A U11A C12A C13A,1.22
19,U7A G9A U11A C12A C13U,1.44
20,U7A G9A U10C U11C C12U C13G,1.04
21,U7A G9A U10C U11C C12U C13U,1.04

row,Variant,aptazyme ON/OFF ratio
1,U7A G9A U10C U11C C12U C13A,1.03
2,U7A G9A U10A U11A C12G,1.15
3,U7A G9A U10A U11A C12U,1.21
4,U7A G9A U10A U11A C12A,1.25
5,U7A G9A U11A C12A,1.34
6,U7A G9A U11A C12U,1.54
7,U7A G9A U11A C12G,1.23
8,U7A C12A,1.54
9,U7A C12U,1.48
10,U7A C12G,1.44
11,U7A G9A U10G U11A C13G,1.03
12,U7A G9A U10G U11A C13A,1.09
13,U7A G9A U10G U11A C13U,1.06
14,U7A G9A U10G U11C C13G,1.11
15,U7A G9A U10G U11C C13A,1.19
16,U7A G9A U10G U11C C13U,1.02
17,U7A G9A U11G,1.67
18,U7A G9A U11A,1.46
19,U7A G9A U11C,1.02
20,U7A G9A U11G C12U C13U,1.27
